# Source: publication PMC4148960, “Sox2 acts as a transcriptional repressor in neural stem cells” (BMC Neuroscience, 2014)
# B1: radiolabelled Sox2 (in vitro translated) (natural protein)
# chain: not shown
# modifications: S^35-labelled
# notes: Sox2, wild type; also called S^35-labelled Sox2; WT Sox2; source: in vitro translated (TNT T7 kit, Promega)
# Molecular target: T1, GST-fused Grg1 (UniProt Q62440 1-770)
# T1 construct: Grg1 (groucho-related gene 1); cloned into pGEX4T1; No purification before mixing with Sox2 is described; the fusion was collected on glutathione-sepharose after the incubation; also called GST-Grg1; source: E. coli BL21, induced with IPTG, bacteria lysed
# T1 sequence (Q62440 whole entry, the tested form may be a part): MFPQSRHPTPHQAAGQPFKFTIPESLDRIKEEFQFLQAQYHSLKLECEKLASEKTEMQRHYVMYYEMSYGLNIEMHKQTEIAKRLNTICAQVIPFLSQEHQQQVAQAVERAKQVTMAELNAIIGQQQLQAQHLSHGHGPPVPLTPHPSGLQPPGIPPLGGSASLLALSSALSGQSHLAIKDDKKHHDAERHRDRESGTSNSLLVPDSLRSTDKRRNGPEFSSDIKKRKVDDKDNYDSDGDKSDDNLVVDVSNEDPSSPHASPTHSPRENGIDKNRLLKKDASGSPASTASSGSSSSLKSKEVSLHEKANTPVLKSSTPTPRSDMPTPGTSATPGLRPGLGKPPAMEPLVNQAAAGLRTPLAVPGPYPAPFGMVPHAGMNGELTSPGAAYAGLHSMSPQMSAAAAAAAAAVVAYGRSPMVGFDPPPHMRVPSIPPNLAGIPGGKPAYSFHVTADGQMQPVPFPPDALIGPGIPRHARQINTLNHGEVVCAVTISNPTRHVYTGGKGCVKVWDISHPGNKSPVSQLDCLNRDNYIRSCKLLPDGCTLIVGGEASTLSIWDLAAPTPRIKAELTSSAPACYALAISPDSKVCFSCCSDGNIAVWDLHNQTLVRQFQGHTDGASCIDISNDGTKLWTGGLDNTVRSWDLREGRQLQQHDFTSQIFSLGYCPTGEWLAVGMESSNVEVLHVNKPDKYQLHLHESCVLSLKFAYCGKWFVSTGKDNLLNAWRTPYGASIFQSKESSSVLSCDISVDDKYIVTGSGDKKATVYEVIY
# Test: pull-down; data not shown: amounts of radiolabelled Sox2 pulled down by GST-Grg1 and GST-Grg5 compared
# Conditions: partners not purified
binder,measurement,value
B1,fold more Sox2 pulled down than by Grg5,~4 fold
